Results: the nanobody polyreactivity screen of Harvey et al. (2022)

Assay: yeast display, Sf9 membrane polyspecificity reagent, FACS + sequencing; frameworks hold sequencing errors
Summary of the method: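 Galactose-induced (36–48 hours) yeast carrying a synthetic nanobody display library were exposed to 10% biotinylated, detergent-solubilized Sf9 membrane reagent at 4 °C for 1 hour. FACS followed streptavidin microbead enrichment, using low and high (top ~1%) gates for expression (anti-HA) and reagent binding (streptavidin). Colony PCR, MiSeq 2 × 250 sequencing and CDR-length filtering followed. Labels for polyreactivity reflect the gate of origin.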

Sequence | polyreactivity (PSR sort gate)
QVQLVESGGGLVQAGGSLRLSCAASGSIFDSYAMGWYRQAPGKERELVAGIDSTGDTSYADSVKGRFTISRDNAKNTVYLQMNSLKPEDTAVYYCAKEYPGDSVQASDEPWGMGYWGQGTQVTVSS | low polyreactivity
QVQLVESGGGLVQAGGSLRLSSAASGRTFFGYAMGCYRQAPGTERELVAVISYSDGSTYYADSVKGRFTISRDNAKNTVYLQMNSLKPEDTAVYYCNARSRVGNSGADYDYWGQGTQETVSS | low polyreactivity
QVQLVESGGGLVQAVGSLRLSCAASGSTTFYAMGSYRQAPRKEWELVATISSSAGSTYYADSVKGRFTISRDNAKNTVFFQMNSLKPEDTAVFYCNAADAVSDYPDFHIYDYWGQGTQVTVSS | low polyreactivity
QVQLVESGGGLVQAGGSLRLSCAASGSTFVPYAMGWYRQAPGKERELVASISWRGGSTSYADSVKGRFTISRDNAKNTVYLQMNSLKPEDTAVYYCAKRRYWAPYDYWGQGTQVTVSS | high polyreactivity
QVQLVESGGGLVQAGGSLRLSCAASGSTFKTYAMGWYRQAPGKEREFVASISTSGGSTYYADSVKGRFTISRDNAKNTVYLQMNSLKPEDTAVYYCAAKGRSYGVTRMYYWGQGTQVTVSS | high polyreactivity
QVLLQESGGGLVQAGGSLRLGCAASGTISPAYYMGRYHQAPGKEREFVAAITYGTNTYYADSVKGRFTISRDNAKNSVYLQMNSLKPEDTAVYYCSATAGYNGAHDYWGQGTQVTVSS | low polyreactivity
QVQLVESGGGLVQEGGSLRLSCAASGSLFDVYAMGWYRQAPGKERELVAAISSSGSTYYADSVKGRFTISRDNAKNTVYLQMNSLKPEDTAVYYCAADQADDDDYYYWGQGTQVTVSS | low polyreactivity
QVQLVESGGGLVQAGGSLRLSCAASGSTFRTYAMGWYRQAPGKERELVAAISGDTSTNYADSVKGRFTISRDNAKNTVYLQMNSLKPEDTAVYYCAAYWTTYATLWYDYWGQGTQVTVSS | low polyreactivity
QVQLVESGGGLVQAGGSLRLSCPDSAFTFSLYGMGWYRQAPGKEREMVAAIRSGGSTNYADSVKGRFTISRDNAKNTVYLQMNSVKPEDTAVYVCATDIHSVHNNRDKHDYDYWGQGTQVTVSS | low polyreactivity
QVQLVESGGGLVQAGGSLRLSCAASGLTFVPNAMRWYRQAPGKERELVAAISNNGGRTYYADSVKGRFTISRDNAKNTVYLQMNSLKPEDTAVYYCAKSLSPGERHSYDYRGQGTQVTVSS | high polyreactivity
QVQVVESGGGLVQAGGSLRLSCAASGLTFQVYAKGWYRQAPGKERELVARISSSGSSTYADSVKGRFTISRDNAKNTVYLQMNSLKPEDTAVYYCNAGKRQRGEYWGQGTQVTVSS | high polyreactivity
QVQLVESGGGLVQAGGSLRLSCAASGSTFRYYAMGWYRQAPGKERELVARISWRGGSTYYADSVKGRFTISRDNAKNTVYLQMNRLKPEDTAVYYCAAVRWVRYRTSAYEYWGQGTLVTVSS | high polyreactivity
QVQLVESGVGLVQAGGSLRLSCAASGSIFGPYAMGWSRQAPGKERELVAAISLGGGSTYYAASVKGRFTISRDNAKNTVYLQMNSVKPEDTAVYYCNAEFSSGPYGYNGFDYWGQGTQVTVSS | low polyreactivity
QVQLVESGGGLVQAGVSLRLSCAASGFIFYRYAMGWYRQAPRKERELVAAISWGGGSTTYYADSVKGRFTISRYNAKNTVYLQMNSLKPEDTAVYYCAKLRYPYLFWDDSEYWGQGTQVTVSS | low polyreactivity
QVQLVESGGGLVHAGGSLRLSCAASGSTLAGYAMGWYRQAPGKERELVAAIDWTGGSTTYSDSVKGRFTISRDNAKNTVYLQMNSLKPEDTAVYFCHVDLGVNGDYWGQGTQVTVSS | low polyreactivity
QVQLVESGGGLVQAGGSLRLSCAASGSIFDNAMGWYRQAPGKERELVAAISLSGSRTYYADSVKGRFTISRDNAKNTDYLQMNSLKPEDTAVYYCNTELVYYSTYDYWGQGTQVTVSS | low polyreactivity
QVQLVESGGGLVQAGCSLRLSCAASGSIFGWYAMGWYRQAPGTERELVAAITLIGGSTYYADSVKGRFTISRDNAKNTVYLQMNSLKPEDTAVYYCNAVWYWGDMDYWGQGTQVTVSS | low polyreactivity
QVQLVESGGGLVQAGGSLRLSCAASGRTFIGYAMAWYRQAPGKEWELVAAISARGGRTYYADSVKGRFTISRDNAKNTVYLQMNSLKPEETAVYYCAAVRVKHSGYDYWGQGTQVTVSS | high polyreactivity
QVQLVESGGGLVQAGGSLRLSCAASGYNFARYAMGWDRQAPGKEREFVAAITWSGGTTYYADSVKGRFTISRDNAKNTVYLQMNRLKPEDTAVYYCAARGYYTEAASSKRGNYWGQGTQVTVSS | high polyreactivity
QVQLQESGGVQAGGSLRLSCAASGYISRSDVMGWYRQAPGKERELVATINNGTITYYADSVKGRFTISRDNATNTVYLQMNSLKPEDTAVHYCAVVQSDTDSLYYWGQGTQVTVSS | low polyreactivity
QVQLVESGGGLVQAGGSLRLSCAASGNTFVQNDMGWYRQAPGKEREFVAAITWIGGSTRYADSVKGRFTISRDNAKNTVYLQMNSLKPEDTAVYYCAVKPVGWPRYRVDYWGQGTQVTVSS | high polyreactivity
QVQLVESGGGLVQAGGSLRLSCAASGSIFQNYAMGWYRQAPGKERELVAAINDDSTYYADSVKGRFTISRDNAKNTVYLQMNSLKPEDTAVYYCNAEDYVTLKIDLSWPYGYWGQGTQVTVSS | low polyreactivity

Sequence | polyreactivity (PSR sort gate)
QVQLVESGGGLVQAGGSLRLSCAASGRTFAAYAMGWYRQAPGKERELVAAISRGGGRTYYADSVKGRFTISRDNAKNTVYLQMNSLKPEDTAVYYCNAVRPRDNGSWGQGTQVTVSS | high polyreactivity
QVQLVESGGGIVQAGGSLRLSCAASGNTFGYYAIGWYRQAPGKERELVAAINFGGDTSYADSVKGRFTISRDNAKNTVYLQMNSLKPEDTAVYYCNRVPSWRIDYDYWGQGTQVTVSS | low polyreactivity
QVQLVESGGGLVQAGGSLRLSCASSGRTFYSYAMGWYRQAPGKERELVAGITWSGTSTYYADSVKGRFTISRDNWKNTVYLQMYSLKPEDTAVYYCAAATLYSGYDYWGQGTQVSVSS | low polyreactivity
QVQLVESGGGLVQAGGILRLSCTASGFTLGHYAMGWYRQSPGKERELVAVITSGSSTNYADSVKGRFTISRDNAKNTVYLQMNSLKPEDTAVYYCAAEDQFFKWLYYFWGEGTQVTVSS | low polyreactivity
QVHLVESGGGLVQAGCSLRLSCAASGFTFYDYAMGWYRQAPGKERELVAGISRGDSTYYADSVKGRFTISRDNAKNTVYLQKNSLKPEDTSVYYCAADARSYDALDYSDLLYDYWGHGTQVTVSS | low polyreactivity
QVQLVESGGGLVQAGGSLRLSCAASGIIFCDNAMGWYRHAPGKERELVAAITIGGTSTYYADSVKGRFTISRDNAKNTVYLQMNSLKPEDTAVYYCAKTILYDCDYWGQGTQVTVSS | low polyreactivity
QVQLVESGGGLVQAGGSLRLSCAASGRILGAYAMGWYRQAPGKERELVASISSGGRTYYADSVKGRFTISRDNAKNTVYLQMNSLKPEDTAVYYCAAYVYTSFLYYYWGQGTQVTVSS | high polyreactivity
QVQLVESGGGLVQAGGSLRLSCAASGSTFRWYAMGWYRQAPGKERELVAAITSGGSTNYADSVKGRFTISRDNAKNTVYLQMNSLKPEDTAVYYCNKVYPVVRYEPQYDYWGQGTQVTVSS | low polyreactivity
QVQLVESGGGLVQAGGSLRLSCAASGSTFFEYAMGWYRQAPGKVREFVAGISWSGGITYYADSVKGRFTISRDNAKNTVYLQMNSLKPEDTAVYYCATAGGDWYGVDYWGQGTQVTVSS | low polyreactivity
QDQLVESGGGLVQEGGSLRLSCAASVRIFGPYAMGWYRQAPGKERELLAAITRGGSTSYADSVKGRFTISRDNAKNTVYLQMNSLKPEDTAVYYCAADTLRWWDGFDYWGQGTQVTVST | low polyreactivity
QVQLGESGGGLVQAGGSLRLSCAASGRIVRFYAMGWYRQAPGKERELVATISRSGGSTYYADSVKGRFTISRDNAKNTVNIQMNSLKPEDTAVYYCARLVGSRYGHWGQGTQVTVSS | high polyreactivity
QVQLVESGGRLVQAGGSLRLSCAASGRTFGYYAKGLSRQAQGKEREFVAAISFRTTSTYYADSVKGRFTISRDNAKNTVYLQMISLKPEDTAVYYCNVVVKGAWDYYPYDYWGQGPQVTVSS | high polyreactivity
QVQLVESGGGLVQAGGSLRLSCAASGSTFKRYAMGWYRQAPGKERELVAAISSGGTTNYADSVKGRFTISRDNAKNTVYLQMNSLKPEDTAVYYCNRKFRYSSHTNYYYWGQGTQVTVSS | high polyreactivity
QVQLVESGGGLVQAGGSLRLSCAASGSIFNYYTMGWYRQAPGKERELVAAISYRGGRTYYADSVKGRFTISRDNAKNTVYLQMNSLKPEDTAVYYCNAVTRIYEVDYWGQGTQVTVSS | high polyreactivity
QVQLVESGGGLVQAGGSLRLSCAASGITFPYYALGWYRQAPGKERELVARISRGGRTNYADSVKGRFTISRDNAKNTVYLQMNSLKPEDTAVYYCNAGYTYYKYGYWGQGTQVTVSS | high polyreactivity
QVQLVESGGGLVQAGGSLRLSCAASGSTFYAYAMGWYRQAPGKERELVAAISSDGTNYADSVKGRFTISRDNAKNTVYLQMNSLKPEDTAVYYCAADEASSRGYYDYDYWGQGTQVTVSS | low polyreactivity
QVQLVESGGGLVQAGGSHRLSCAASGSIFRSNTMGWYRQAPGKERELVAAITWRRGSTYYADSVKGRFTISRDNAKNTVYLQMNSLKPEDTAVYDCNALYVSRDDYWGQGTQVTVSS | high polyreactivity
QVQLVESGGGLVQAGGSLRLSCAASRSIFRGYAMGWYRQAPVKETELVAAITQRAGSTYYADSVKGRFTISRDNAKNTVYLQMISLKPEDTAVYYCAADFYYAYYWGQGTQVTVSS | low polyreactivity
QVQLVESGGGLVQAGGSLRLSCAASGSIFFYNAMGWYRQAPGKERELVAAITTRGGSTYYADSVKGRFTISRDNAKNTVYLQMNSLKPEATAVYYCARSSRGKLVYWGQGTQVTVSS | low polyreactivity
QVQLVESGGGLVQAGGSLRLSCAASGSTFSWNTMGWYRQAPGKERELVAAISRRGGSTYYADSVKGRFTISRDNAKNTVYLQMNSLKPEDTAVYYCNAKYYYGHRPATAGRYYYWGQGTQVTVSS | high polyreactivity
QVQLVESGGGLVQAGGSLRLSCAAYGSTFKPYAMGRYRQAPGKERELVADITGGGSTNYADSVKGRFTISRDNAKNTVYLQMNSLKPEDTAVYYCNADPVRSTYSYDYWGQGTQVTVSS | low polyreactivity
